Key:
calmodulin [1] = molecular target: T1, calmodulin (Homo sapiens, UniProt P0DP23); test: Populations of J, α, ω motional classes of calmodulin methyl O^2axis distributions in the complexes
Description: FIG. 3a, provides a histogram of the sum of the O^2axis parameter distributions of calmodulin in the six individual complexes obtained at 35° C. The solid line represents the best-fitted solution to a 3-gaussian distribution with all nine parameters fitted. FIG. 3b provides histograms of the O^2axis parameter distributions of calmodulin in the individual complexes. […]
The summed distribution of O^2axis axis parameters of all six complexes was fitted to a random distribution and to one, two- and three-gaussian distribution models. […] (3) where Ai, Ci and Wi define the population, centre and breadth, respectively, of the J, α and ω classes of motion.
The nine parameters were fitted using the nonlinear regression routine of SigmaPlot 2000 (SPSS). […] These centres were fixed in subsequent fitting of the O^2axis distributions of the individual complexes, from which the relative populations of each motional class were obtained. Uncertainties in the fitted populations were estimated by varying the O^2axis parameters by two standard deviations. […] The total change in conformational entropy of calmodulin on binding a target domain was calculated as the sum of three terms: ΔSconf=ΔSharm+ΔSrotamer(fast)+ΔSrotamer(slow). Changes in conformational entropy ΔSrotamer(fast) expressed as changes in motion within a rotameric well on the fast timescale (sub-ns) were obtained from the experimentally determined O^2axis parameters using a simple harmonic oscillator model. Li Z et al. (1996). To calculate changes in entropy derived from motion of the same oscillator, site-to-site comparison to free calcium-saturated calmodulin was used to provide a reference state. The change in the entropy reflected by the change in the motion of each methyl symmetry axis was estimated using ΔSharm=−18×ΔO^2axis J mol^−1 K^−1. See Li Z et al. (1996) for further details of the model. To normalize the unequal number of resolved sites among the complexes, the average methyl order parameter within a complex was assigned to each unresolved site of that complex. A classical entropy term (ΔSrotamer(fast)) was added to represent minor conformers that are sampled owing to fast rotameric interconversion that also contributes to the generalized order parameter. Lee, A. L. et al. Temperature dependence of the internal dynamics of a calmodulin peptide complex. Biochemistry 41, 13814-13825 (2002).

calmodulin [2] = molecular target: T1, calmodulin; test: NMR relaxation: backbone dynamics (order parameters) of calmodulin in complex with target domains; conditions: average ± standard deviation, 35° C.; for <O^2CαCO>: CO—Cα bond vectors of calmodulin in complex; for <O^2NH>: N—H bond vectors of calmodulin in complex
Description: The sub-nanosecond (sub-ns) dynamics of the polypeptide backbone of calmodulin in the six complexes were probed using NMR relaxation techniques. The degree of spatial restriction of each motional probe was assigned a number between 0, corresponding to complete isotropic disorder, and 1, corresponding to a fixed orientation in the molecular frame. This parameter is the squared generalized order parameter (O^2) as it applies to the amide N—H bond (O^2NH), the Cα—C′ bond (O^2cαcO) and the methyl symmetry axis (O^2axis). O^2NH parameters at amide nitrogen sites were obtained from measurements of ^15N dipolar relaxation. Farrow, N. A. et al. Backbone dynamics of a free and a phosphopeptide-complexed Src homology-2 domain studied by ^15N NMR relaxation. Biochemistry 33, 5984-6003 (1994). O^2cαcO parameters were obtained from measurement of transverse cross-correlated relaxation between ^13CO chemical shift anisotropy and the ^13CO—^13Cα dipolar interactions. Wang, T., Cai, S. & Zuiderweg, E. R. Temperature dependence of anisotropic protein backbone dynamics. J. Am. Chem. Soc. […] The motion of methyl groups (O^2axis) of calmodulin side chains were characterized using ^2H spin relaxation methods. Muhandiram, D. R. et al. Measurement of H-2 T-1 and T-1p relaxation-times in uniformly C-13-Labeled and fractionally H-2-labeled proteins in solution. J. Am. Chem. Soc. 117, 11536-11544 (1995).
O^2axis parameters were determined from T1 and T1p deuterium relaxation (Muhandiram, D. R. et al. Measurement of H-2 T-1 and T-1p relaxation-times in uniformly C-13-Labeled and fractionally H-2-labeled proteins in solution. J. Am. Chem. Soc. 117, 11536-11544 (1995)) measured at two magnetic fields. Rotational correlation times and O^2NH were determined from ^15N relaxation (Farrow, N. A. et al. Backbone dynamics of a free and a phosphopeptide-complexed Src homology-2 domain studied by ^15N NMR relaxation. Biochemistry 33, 5984-6003 (1994)) obtained at two magnetic fields. O^2CαCO parameters were determined by transverse cross-correlated relaxation. Wang, T., Cai, S. & Zuiderweg, E. R. Temperature dependence of anisotropic protein backbone dynamics. J. Am. Chem. Soc. […] All measurements were made at 35° C. Model-free parameters (Lipari, G. & Szabo, A. Model-free approach to the interpretation of nuclear magnetic-resonance relaxation in macromolecules. 1. Theory and range of validity. J. Am. Chem. Soc. 104, 4546-4559 (1982)) were determined using a grid search approach (Dellwo, M J. & Wand, A. J. Model-independent and model-dependent analysis of the global and internal dynamics of cyclosporine-A. J. Am. Chem. Soc. 111, 4571-4578 (1989)) using a quadrupolar coupling constant of 167 kHz, an effective N—H bond length of 1.04 Å and ^15N tensor breadth of 170 p.p.m. […] The model-free parameters have been deposited in the Biological Magnetic Resonance Data Bank (“BioMagResBank,” Eldon L. Ulrich; Hideo Akutsu; Jurgen F. Doreleijers; Yoko Harano; Yannis E. Ioannidis; Jundong Lin; Miron Livny; Steve Mading; Dimitri Maziuk; Zachary Miller; Eiichi Nakatani; Christopher F. Schulte; David E. Tolmie; R. Kent Wenger; Hongyang Yao; John L. Markley; Nucleic Acids Research 36, D402-D408 (2007) doi: 10.1093/nar/gkm957).

[3] = area under fitted Gaussian, fixed centres
[4] = percentage of counts in class (number of observations), O^2axis 0.5 to 0.7
[5] = percentage of counts in class (number of observations), O^2axis above 0.7
[6] = percentage of counts in class (number of observations), O^2axis up to 0.5

| Substance | % J (calmodulin [1]; [3]) [%] | % α (calmodulin [1]; [3]) [%] | % ω (calmodulin [1]; [3]) [%] | % α (calmodulin [1]; [4]) [%] | % ω (calmodulin [1]; [5]) [%] | % J (calmodulin [1]; [6]) [%] | <O^2CαCO> (calmodulin [2]) | <O^2NH> (calmodulin [2]) |
| --- | --- | --- | --- | --- | --- | --- | --- | --- |
| (COOH-FPNGFSRKRLMSKVLIVTTWSPLL [CaMKKα(p)] | 38.5 | 21.3 | 40.3 | 30 | 35 | 35 | 0.79 ± 0.21 | 0.93 ± 0.08 |
| AKSKWKQAFNATAVVRHMRKLQ (listed as Homo sapiens) [CaMKI(p)] | 38.2 | 24.8 | 37.0 | 30 | 32 | 38 | 0.88 ± 0.14 | 0.94 ± 0.08 |
| KRRAIGFKKLAEAVKFSAKLMGQ [nNOS(p)] | 51.6 | 14.7 | 33.7 | 25 | 30 | 45 | 0.85 ± 0.16 | 0.92 ± 0.08 |
| QTEKMWQRLKGILRSLVKQ [PDE(p)] | 48.3 | 18.9 | 32.8 | 33 | 20 | 46 | – | 0.92 ± 0.06 |
| RKKTFKEVANAVKISASLMG [eNOS(p)] | 45.6 | 18.4 | 36.0 | 30 | 33 | 38 | – | – |
